In patent publication US20210355194A1 one finds ELISA fold over background data, which are given here for 8 molecules.

To fix the notation:
B1: SARS-CoV-2 variant 1-49 (antibody)
chain 1: EVQLLESGGGLVQPGGSLRLSCAASGFTFSSYAMYWVRQAPGKGLEWVSAISGSAGSTYYADSVKGRFTISRDNSKNTLYLQMNSLRAEDTAVYYCARDTNDFWGQGTLVTVSS
chain 2: QSALTQPASVSGSPGQSITISCTGTSSDIGSYNLVSWYQQHPGKAPKLMIYEGTKRPSGVSNRFSGSKSGNTASLTISGLQAEDEADYYCCSYAGSRTYVFGGGTKLTVL
B2: SARS-CoV-2 variant 1-32 (antibody)
chain 1: EVQLLESGGGLVQPGGSLRLSCAASGFTFSSYAMYWVRQAPGKGLEWVSAISGSGGSTFYADSVKGRFTISRDNSKNTLYLQMNSLRAEDTAVYYCTRPPYGDYGDYWGQGTLVTVSS
chain 2: QSALTQPASVSGSPGQSITISCTGTSSDVGGYNLVSWYQQHPGKAPKLMIYEGNKRPSGVSNRFSGSKSGNTASLTISGLQAEDEADYYCCSYAGSSTFPVVFGGGTKLTVL
B3: SARS-CoV-2 variant 1-4 (antibody)
chain 1: EVQLLESGGGLVQPGGSLRLSCAASGFTFSSQAMSWVRQAPGKGLEWVSAISGSGGGTYYADSVKGRFTISRDNSKNTLYLQMNSLRAEDTAVYYCAKDRRFGEFDPWGQGTLVTVSS
chain 2: QSALTQPASVSGSPGQSITISCTGTSSDVGTYNLVSWYQQHPGKAPKLMIYEGSQRPSGVSNRFSGSKSGNTASLTISGLQAEDEADYYCCSYAGSSSFVVFGGGTKLTVL
B4: SARS-CoV-2 variant 1-5 (antibody)
chain 1: EVQLLESGGGLVQPGGSLRLSCAASGFTFSSQAMSWVRQAPGKGLEWVSAISGSGGGTYYADSVKGRFTISRDNSKNTLYLQMNSLRAEDTAVYYCAKDRRFGEFDPWGQGTLVTVSS
chain 2: QSALTQPASVSGSPGQSITISCTGTSSGVGSYNLVSWYQQHPGKAPKLMIYEASKRPSGVSNRFSGSKSGNTASLTISGLQAEDEADYYCCSYAGSYTFAVFGGGTKLTVL
B5: SARS-CoV-2 variant 1-28 (antibody)
chain 1: EVQLLESGGGLVQPGGSLRLSCAASGFTFSSYGMSWVRQAPGKGLEWVSAISGSGGGTYYADSVKGRFTISRDNSKNTLYLQMNSLRAEDTAVYYCASSSSWQFDYWGQGTLVTVSS
chain 2: QSALTQPASVSGSPGQSITISCTGTSSGVGSYNLVSWYQQHPGKAPKLMIYEGSQRPSGVSNRFSGSKSGNTASLTISGLQAEDEADYYCCSYAGSSTHYVFGGGTKLTVL
B6: SARS-CoV-2 variant 1-30 (antibody)
chain 1: EVQLLESGGGLVQPGGSLRLSCAASGFTFSSYAMTWVRQAPGKGLEWVSAISGSGGSTFYADSVKGRFTISRDNSKNTLYLQMNSLRAEDTAVYYCTRPPYGDYGDYWGQGTLVTVSS
chain 2: QSALTQPASVSGSPGQSITISCTGTSRDVGSYNLVSWYQQHPGKAPKLMIYEGTKRPSGVSNRFSGSKSGNTASLTISGLQAEDEADYYCCSYAGSRTPVVFGGGTKLTVL
B7: SARS-CoV-2 variant 1-3 (antibody)
chain 1: EVQLLESGGGLVQPGGSLRLSCAASGFTFSSQAMSWVRQAPGKGLEWVSAISGSGGGTYYADSVKGRFTISRDNSKNTLYLQMNSLRAEDTAVYYCAKDRRFGEFDPWGQGTLVTVSS
chain 2: QSALTQPASVSGSPGQSITISCTGISSDVGSYNLVSWYQQHPGKAPKLMIYEGTKRPSGVSNRFSGSKSGNTASLTISGLQAEDEADYYCCSYAGSSSFVVFGGGTKLTVL
B8: SARS-CoV-2 variant 1-31 (antibody)
chain 1: EVQLLESGGGLVQPGGSLRLSCAASGFTFSSYAMNWVRQAPGKGLEWVSAISGSGGSTFYADSVKGRFTISRDNSKNTLYLQMNSLRAEDTAVYYCTRPPYGDYGDYWGQGTLVTVSS
chain 2: QSALTQPASVSGSPGQSITISCTGTSSDVGKYNLVSWYQQHPGKAPKLMIYEGSQRPSGVSNRFSGSKSGNTASLTISGLQAEDEADYYCCSYAGSRTPVVFGGGTKLTVL

This assay deals with COVID S1 RBD Fc fusion (Antigen 1) (SARS-CoV-2), P0DTC2. As to the kind of experiment: phage ELISA. Conditions: remark: other sources report otherwise.
Take B1: the ELISA fold over background came out at 1 fold. With B2 the figure was 1.5 fold; with B3, 1.4 fold; with B4, 1.6 fold. Next, B5: 1.1 fold; B6: 1.7 fold.

Take B7: the ELISA fold over background came out at 1.8 fold. B8 showed an ELISA fold over background of 1.3 fold.
